First the molecules themselves.
T1: human CD32B expressed on CHO-K1 cells (human, UniProt P31994 43-310)
T1 construct: whole, on cells; also called hCD32B
T1 sequence (looked up): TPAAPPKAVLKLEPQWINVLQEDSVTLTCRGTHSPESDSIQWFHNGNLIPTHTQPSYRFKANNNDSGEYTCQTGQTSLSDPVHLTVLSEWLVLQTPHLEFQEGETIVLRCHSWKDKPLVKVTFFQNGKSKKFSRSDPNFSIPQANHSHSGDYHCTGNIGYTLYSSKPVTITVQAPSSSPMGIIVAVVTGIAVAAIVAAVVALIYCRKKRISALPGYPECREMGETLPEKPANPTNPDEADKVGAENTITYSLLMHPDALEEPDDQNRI

B1: CCR8-hIgG1DE (antibody)
heavy chain: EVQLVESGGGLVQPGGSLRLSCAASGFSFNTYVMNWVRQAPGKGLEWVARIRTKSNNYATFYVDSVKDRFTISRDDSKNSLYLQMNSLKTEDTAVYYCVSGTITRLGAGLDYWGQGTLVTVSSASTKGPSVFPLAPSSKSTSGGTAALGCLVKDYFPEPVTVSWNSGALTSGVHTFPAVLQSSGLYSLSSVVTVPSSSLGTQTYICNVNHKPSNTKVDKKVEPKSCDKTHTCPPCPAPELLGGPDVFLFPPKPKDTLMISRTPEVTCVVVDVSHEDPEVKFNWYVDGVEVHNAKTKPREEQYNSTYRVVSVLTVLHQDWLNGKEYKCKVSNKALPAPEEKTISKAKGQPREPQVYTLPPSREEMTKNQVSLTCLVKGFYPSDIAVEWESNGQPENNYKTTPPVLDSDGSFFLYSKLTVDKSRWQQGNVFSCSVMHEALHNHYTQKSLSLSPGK
light chain: DIVMTQSPLSLPVTPGEPASISCRSSKSLLHSNANTYLYWYLQKPGQSPQLLIYRMSNLASGVPDRFSGSGSGTAFTLKISRVEAEDVGVYYCMQHLEYPFTFGGGTKLEIKRTVAAPSVFIFPPSDEQLKSGTASVVCLLNNFYPREAKVQWKVDNALQSGNSQESVTEQDSKDSTYSLSSTLTLSKADYEKHKVYACEVTHQGLSSPVTKSFNRGEC
notes: also called eADCC CCR8 mAb with Fc-DE (S239D/I332E)
B2: CCR8-45H6E8-hIgG1 (bispecific antibody)
heavy: not shown
light: B1 light chain
notes: Format 1: anti-CCR8 IgG1 with wildtype Fc and 45H6E8 scFv at the C-terminus of each heavy chain; also called CCR8-45H6E8-hIgG1 BsAb; CCR8-45H6E8 WT BsAb
B3: CCR8-hIgG1DLE (antibody)
heavy chain: EVQLVESGGGLVQPGGSLRLSCAASGFSFNTYVMNWVRQAPGKGLEWVARIRTKSNNYATFYVDSVKDRFTISRDDSKNSLYLQMNSLKTEDTAVYYCVSGTITRLGAGLDYWGQGTLVTVSSASTKGPSVFPLAPSSKSTSGGTAALGCLVKDYFPEPVTVSWNSGALTSGVHTFPAVLQSSGLYSLSSVVTVPSSSLGTQTYICNVNHKPSNTKVDKKVEPKSCDKTHTCPPCPAPELLGGPDVFLFPPKPKDTLMISRTPEVTCVVVDVSHEDPEVKFNWYVDGVEVHNAKTKPREEQYNSTYRVVSVLTVLHQDWLNGKEYKCKVSNKALPLPEEKTISKAKGQPREPQVYTLPPSREEMTKNQVSLTCLVKGFYPSDIAVEWESNGQPENNYKTTPPVLDSDGSFFLYSKLTVDKSRWQQGNVFSCSVMHEALHNHYTQKSLSLSPGK
light chain: B1 light chain
notes: also called eADCC CCR8 mAb with Fc-DLE (S239D/A330L/I332E)
B4: CCR8-hIgG1Afucosylated (antibody)
heavy: not shown
light: B1 light chain
modifications: chain 1 pos 303 (EU N297): the Fc N-glycan lacks core fucose (afucosylated); the letters are unchanged
notes: also called anti-hCCR8 monoclonal antibody with Fc-afucosylated; copies: 2 + 2
B5: 45H6E8-z19p1 (antibody, V domains shown)
VH: QVQLVQSGAEVKKPGASVKVSCKVSGYTLTDYYMQWVRQAPGKGLEWIGWIDPEQGDTEYAPKFQGRVTMTADTSTDTAYMELSSLRSEDTAVYYCTTGGNYVDWGQGTTVTVSS
VL: DIQMTQSPSFLSASVGDRVTITCKASQNVGTAVAWYQQKPGKAPKLLIYSASNRYTGVPDRFSGSGSGTDFTLTISSLQPEDFATYFCQQYSSYPLLTFGQGTRLEIK
notes: PTM-removed (N to Q in VH CDR2) version of z19
B6: 45H6E8-z19 (antibody, human IgG1, V domains shown)
VH: B5 VH with Q55N
VL: B5 VL
notes: Human IgG1 LALAPG constant region; also called HU-VH1-6 / HU-VL1-3
B7: 45H6E8-z17 (antibody, human IgG1, V domains shown)
VH: B5 VH with T30K, Q55N, R67K, V68A
VL: B5 VL
notes: Human IgG1 LALAPG constant region; also called HU-VH1-5 / HU-VL1-3
B8: 45H6E8-z20 (antibody, human IgG1, V domains shown)
VH: B5 VH with I48M, Q55N, V68A
VL: B5 VL
notes: Human IgG1 LALAPG constant region; also called HU-VH1-7 / HU-VL1-3
B9: 45H6E8-z13 (antibody, V domains shown)
VH: B5 VH with I48M, Q55N, A72E, T97A
VL: B5 VL
notes: also called HU-VH1-1 / HU-VL1-3
B10: 45H6E8-z20p1 (antibody, V domains shown)
VH: B5 VH with I48M, V68A
VL: B5 VL
notes: PTM-removed version of z20

Numbering of substitutions follows the chain as printed. Names and notes keep the numbering of the source.

The term EC50 denotes the concentration needed to bring the measured effect to its halfway point. One may read the EC50 (read off the curve) as the concentration at which the effect is half-maximal.

T6 sequence (Q8SPW2 17-254): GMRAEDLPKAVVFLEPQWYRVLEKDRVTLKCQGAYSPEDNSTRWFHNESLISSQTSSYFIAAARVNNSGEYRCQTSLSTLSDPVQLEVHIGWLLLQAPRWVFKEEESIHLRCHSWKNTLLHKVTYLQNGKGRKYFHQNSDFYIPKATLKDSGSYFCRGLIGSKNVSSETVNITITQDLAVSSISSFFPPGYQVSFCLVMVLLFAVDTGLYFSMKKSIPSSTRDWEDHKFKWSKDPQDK
T3 sequence (P51654 25-554 limits assumed): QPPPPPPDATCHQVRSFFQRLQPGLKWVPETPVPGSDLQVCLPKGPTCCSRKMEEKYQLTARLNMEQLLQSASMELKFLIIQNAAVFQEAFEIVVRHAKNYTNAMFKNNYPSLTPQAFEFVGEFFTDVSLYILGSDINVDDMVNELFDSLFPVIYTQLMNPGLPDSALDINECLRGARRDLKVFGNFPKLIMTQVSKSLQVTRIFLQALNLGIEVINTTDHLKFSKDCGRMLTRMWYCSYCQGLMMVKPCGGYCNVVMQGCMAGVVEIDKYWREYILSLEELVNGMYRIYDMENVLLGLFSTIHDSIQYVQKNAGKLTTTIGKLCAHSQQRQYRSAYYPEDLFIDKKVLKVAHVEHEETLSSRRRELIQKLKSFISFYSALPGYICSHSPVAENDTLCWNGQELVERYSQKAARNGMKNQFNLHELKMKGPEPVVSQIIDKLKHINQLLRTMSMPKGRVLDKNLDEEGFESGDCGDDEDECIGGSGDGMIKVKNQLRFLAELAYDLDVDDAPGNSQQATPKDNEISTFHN

The first experiment deals with T2, human CD16A-158F expressed on CHO-K1 cells (human, UniProt P08637 17-254).
T2 construct: whole, on cells
T2 sequence (P08637 17-254): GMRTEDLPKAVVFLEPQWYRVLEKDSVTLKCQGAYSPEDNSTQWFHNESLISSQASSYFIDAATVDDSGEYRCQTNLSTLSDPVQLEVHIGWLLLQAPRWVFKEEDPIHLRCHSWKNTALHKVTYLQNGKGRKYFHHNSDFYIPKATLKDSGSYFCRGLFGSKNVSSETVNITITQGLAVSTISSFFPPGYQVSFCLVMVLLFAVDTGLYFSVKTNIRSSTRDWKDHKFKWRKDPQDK
Kind of experiment: flow cytometry, CHO-K1-hCD16A-158F cells, geometric mean. From the text:
(§1) The purpose of the assay was to evaluate the binding of BsAb to each of the hFcγRs.
In the case of B1, the EC50 is 1.4 nM.
B2: the response was half-maximal at 0.095 nM (EC50).
In the case of B3, a half-maximal effect (EC50) was put at 1.2 nM.
On to B4, for which the EC50 stood at 3.5 nM. Against the preceding molecule, the EC50 is about 2.9-fold higher.

The next experiment addresses T3, human GPC3 on HepG2 cells (human, UniProt P51654 25-554).
T3 construct: whole, on cells; also called GPC3-positive HepG2 cells
Kind of experiment: flow cytometry, HepG2 cells (GPC3 positive), geometric mean. A general note: Flow cytometry measures light scatter and fluorescence of single cells or particles in a stream.
With B5, the binding result is listed as “no binding (tested: 100 nM)”.

The target in the next experiment is T4, human CD16A-158V expressed on CHO-K1 cells (human, UniProt P08637 17-254).
T4 construct: whole, on cells; also called hCD16A-158V; CHO-K1-hCD16A-158V
T4 sequence (P08637 17-254 F176V): as the sequence (P08637 17-254) above, with F160V counted along it
Kind of experiment: flow cytometry, CHO-K1-hCD16A-158V cells, geometric mean.
Excerpt: as §1
On to B1, for which the midpoint of the response, the EC50, lay at 0.8 nM. This counts as sub-nanomolar.
The same measure, in the same setting: to B2 belongs 0.1 nM; to B3, 0.75 nM; to B4, 0.45 nM.

For a further experiment, the target named is T2, human CD16A-158F expressed on CHO-K1 …. Kind of experiment: flow cytometry, CHO-K1-hCD16A-158F cells, Alexa Fluor 647 anti-human IgG Fc, geometric mean. How it is done:
(§2) In order to evaluate the binding activity of the chimeric mAbs to human CD16A expressed on cells, cell-based binding assay was employed as followed. […] The antibody dilutions were incubated with 1×10⁵ indicated cells in the 96-well microplate for one hour at 4° C. The antibodies binding to the antigen on the cell surface were detected with PE fluorophore-conjugated anti-human IgG Fc secondary antibodies (ThermoFisher scientific, Cat. No. 12-4998-82) at a dilution rate of 1:1000. Cells were analyzed by flow cytometer LSRFortessa Cell Analyzer (BD Biosciences). Data were analyzed with Flowjo 10.0 software. The graph and statistics analysis were generated with four-parameter nonlinear regression curve fit in Graphpad Prism 9 software.
(§3) The assay was performed following the protocol described above. The antibodies binding to the antigen on the cell surface were detected with Alexa Fluor® 647 AffiniPure™ F(ab′)₂ fragment goat anti-human IgG Fcγ fragment specific secondary antibody (Jackson Immuno Research, Cat. No. 109-606-098) at a dilution rate of 1:2000.
For B6, the “EC50 (read off the curve)” value is ~0.4 nM.
Consider B7, for which the “EC50 (read off the curve)” value was ~0.4 nM.
Still for that read-out and setting: for B8 the value was ~0.4 nM; for B9, ~0.4 nM.

The target of another experiment is T5, human CD16B-NA1 expressed on CHO-K1 cells (human, UniProt O75015 17-200).
T5 construct: whole, on cells; also called hCD16B-NA1; CHO-K1-hCD16B-NA1
T5 sequence (O75015 other isoform, or with tags, fused parts or gaps): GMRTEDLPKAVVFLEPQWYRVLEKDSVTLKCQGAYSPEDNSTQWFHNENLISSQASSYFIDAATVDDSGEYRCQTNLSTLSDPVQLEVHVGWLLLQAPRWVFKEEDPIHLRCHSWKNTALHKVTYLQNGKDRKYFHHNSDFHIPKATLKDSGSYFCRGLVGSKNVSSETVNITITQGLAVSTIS
Put plainly: flow cytometry, CHO-K1-hCD16B-NA1 cells, geometric mean.
Take B10: the binding result is recorded as “no binding (tested: 100 nM)”.
The same measure, in the same setting: for B5 the value was “no binding (tested: 100 nM)”.

Another experiment addresses T6, cynomolgus CD16 expressed on CHO-K1 cells (cynomolgus, UniProt Q8SPW2 17-254).
T6 construct: whole, on cells; also called cyno CD16; CHO-K1-cynoCD16
Kind of experiment: flow cytometry, CHO-K1-cyno CD16 cells, geometric mean. As for the experimental part:
as §2
(§4) The assay was performed following the protocol described above.
Take B6: the “EC50 (read off the curve)” value was ~0.7 nM.
Consider B8, for which the “EC50 (read off the curve)” value was ~0.8 nM.
B10: the concentration for a half-maximal effect (EC50 (read off the curve)) was ~0.7 nM.
Take B5: the “EC50 (read off the curve)” value is ~0.7 nM.

The next experiment deals with T1, human CD32B expressed on CHO-K1 cells. Kind of experiment: flow cytometry, CHO-K1-hCD32B cells, geometric mean.
Excerpt: as §1
With B1, the binding result is on record as “binds”.
Take B2: the binding result is reported as “binds”.
For B3, the binding result is on record as “binds”.
B4: the binding result is “binds”.

The target of a further experiment is T5, human CD16B-NA1 expressed on CHO-K1 …. Put plainly: flow cytometry, CHO-K1-hCD16B-NA1 cells, Alexa Fluor 647 anti-human IgG Fc, geometric mean. As for the experimental part:
as §2, §3
With B6, the binding result is recorded as “no binding (tested: 100 nM)”.
As for B7, the binding result was “no binding (tested: 100 nM)”.
For B8, the binding result is “no binding (tested: 100 nM)”.
Same read-out and setting: for B9 the value was “no binding (tested: 100 nM)”.

A further experiment has as its target T6, cynomolgus CD16 expressed on CHO-K1 …. Put plainly: flow cytometry, CHO-K1-cyno CD16 cells, Alexa Fluor 647 anti-human IgG Fc, geometric mean. As for the experimental part: as §2, §3
With B6, the “EC50 (read off the curve)” value was ~1 nM.
Consider B7, for which the “EC50 (read off the curve)” value was ~1 nM.
For B8, the “EC50 (read off the curve)” value was ~1 nM.
Take B9: the “EC50 (read off the curve)” value was ~1 nM.

The target of the next experiment is T2, human CD16A-158F expressed on CHO-K1 …. Put plainly: flow cytometry, CHO-K1-hCD16A-158F cells, geometric mean. This is another data set of the same source.
As to B5, the “EC50 (read off the curve)” value is ~0.5 nM.

For another experiment, the target named is T4, human CD16A-158V expressed on CHO-K1 …. Kind of experiment: flow cytometry, CHO-K1-hCD16A-158V cells, geometric mean. This is another data set of the same source.
B5: the “EC50 (read off the curve)” value was ~0.5 nM.

A further experiment shares this target. Described as above. This is another data set of the same source. As for the experimental part: as §2, §4
In the case of B6, the “EC50 (read off the curve)” value is ~0.4 nM.
The same measure, in the same setting: to B8 belongs ~0.4 nM.
In the case of B10, the “EC50 (read off the curve)” value was ~0.4 nM.
Still for that read-out and setting: to B5 belongs ~0.4 nM.

For another experiment, the target named is T2, human CD16A-158F expressed on CHO-K1 …. Put plainly: flow cytometry, CHO-K1-hCD16A-158F cells, geometric mean. The source holds these as a separate data set. As for the experimental part:
as §2, §4
As to B6, the “EC50 (read off the curve)” value was ~0.4 nM.
In the case of B8, the “EC50 (read off the curve)” value was ~0.4 nM.
On the same count and under the same terms, to B10 belongs ~0.4 nM; to B5, ~0.4 nM.

The target in a further experiment is T4, human CD16A-158V expressed on CHO-K1 …. Put plainly: flow cytometry, CHO-K1-hCD16A-158V cells, Alexa Fluor 647 anti-human IgG Fc, geometric mean. As for the experimental part: as §2, §3
With B6, the “EC50 (read off the curve)” value was ~0.4 nM.
Take B7: the “EC50 (read off the curve)” value was ~0.4 nM.
Same read-out and setting: for B8 the value was ~0.4 nM; for B9, ~0.4 nM.

Source of the values: patent publication US20260242485A1 (LEPU BIOPHARMA, published 2026).
